Values belong to the binder of their own block, whether it stands above or below them.
Tests used:
recombinant human IL-1α [1] = molecular target: T1, recombinant human IL-1α (human, UniProt P01583 113-271); assay: SPR (Biacore)
T1 construct: Bought recombinant protein; also called rhIL-1α; hIL-1α
T1 sequence (looked up): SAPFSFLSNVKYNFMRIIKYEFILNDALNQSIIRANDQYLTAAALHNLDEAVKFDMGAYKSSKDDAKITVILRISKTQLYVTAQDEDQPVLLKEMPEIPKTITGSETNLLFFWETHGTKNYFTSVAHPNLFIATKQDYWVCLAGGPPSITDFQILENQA

recombinant human IL-1β [2] = molecular target: T2, recombinant human IL-1β (human, UniProt P01584 117-269); assay: SPR (Biacore)
T2 construct: also called rhIL-1β; hIL-1β

recombinant human IL-1α [3] = molecular target: T1, recombinant human IL-1α; assay: cell-based or functional assay
recombinant human IL-1β [4] = molecular target: T2, recombinant human IL-1β; assay: cell-based or functional assay
human IL-12 [5] = molecular target: T3, human IL-12 (human, UniProt P29459 23-219; P29460 23-328); assay: SPR (Biacore)
T3 construct: also called hIL-12
T3 sequence (looked up) 1: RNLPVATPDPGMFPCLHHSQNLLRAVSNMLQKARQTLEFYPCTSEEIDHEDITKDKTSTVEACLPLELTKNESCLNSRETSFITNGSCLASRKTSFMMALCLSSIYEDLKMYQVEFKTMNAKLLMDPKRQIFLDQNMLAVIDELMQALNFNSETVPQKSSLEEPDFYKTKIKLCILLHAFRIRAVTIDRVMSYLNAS
T3 sequence (looked up) 2: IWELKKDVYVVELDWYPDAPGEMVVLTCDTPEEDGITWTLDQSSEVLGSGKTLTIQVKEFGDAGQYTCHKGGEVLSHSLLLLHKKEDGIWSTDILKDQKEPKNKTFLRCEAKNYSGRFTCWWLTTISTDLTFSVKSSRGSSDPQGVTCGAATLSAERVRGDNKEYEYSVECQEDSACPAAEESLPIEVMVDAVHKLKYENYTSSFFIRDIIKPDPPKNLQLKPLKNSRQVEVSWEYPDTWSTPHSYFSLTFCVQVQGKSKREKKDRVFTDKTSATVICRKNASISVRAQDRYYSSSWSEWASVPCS

human IL-18 [6] = molecular target: T4, human IL-18 (human, UniProt Q14116 37-193); assay: SPR (Biacore)
T4 construct: also called hIL-18

human IL-12 [7] = molecular target: T3, human IL-12; assay: cell-based or functional assay
human IL-18 [8] = molecular target: T4, human IL-18; assay: cell-based or functional assay
recombinant human IL-1α [9] = molecular target: T1, recombinant human IL-1α; assay: cell-based or functional assay; remark: listed apart in the source
recombinant human IL-1β [10] = molecular target: T2, recombinant human IL-1β; assay: cell-based or functional assay; remark: listed apart in the source
mouse IL-1β = mouse IL-1β (mouse, UniProt P10749 118-269); assay: cell-based or functional assay
mouse IL-1α = molecular target: T5, mouse IL-1α (mouse, UniProt P01582 115-270); assay: cell-based or functional assay
T5 sequence (looked up): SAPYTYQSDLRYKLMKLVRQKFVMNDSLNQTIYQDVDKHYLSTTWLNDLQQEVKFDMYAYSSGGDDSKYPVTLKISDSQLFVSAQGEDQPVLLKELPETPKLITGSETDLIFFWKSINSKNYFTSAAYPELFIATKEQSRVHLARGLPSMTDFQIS

Chain of mouse IL-1β (P10749 118-269 limits assumed): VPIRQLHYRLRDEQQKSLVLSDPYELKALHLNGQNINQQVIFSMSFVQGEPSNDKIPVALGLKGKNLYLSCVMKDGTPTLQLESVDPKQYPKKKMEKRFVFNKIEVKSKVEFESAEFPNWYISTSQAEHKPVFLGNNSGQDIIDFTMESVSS

Kd (recombinant human IL-1α [1]): 0.82 nM | Kd (recombinant human IL-1β [2]): 0.697 nM | Potency (IC50) M, MRC-5 bioassay (recombinant human IL-1α [3]): 1 nM | Potency (IC50) M, MRC-5 bioassay (recombinant human IL-1β [4]): 0.75 nM
B1: hIL-1α/bDVD6b-Ig (bispecific antibody, human IgG1, kappa)
heavy: not shown
light: QIVLTQSPAIMSASPGEKVTITCSASSSVSYMHWFQQKPGASPKLWIYSTSNLASGVPARFSGSGSGTSYSLTVSRMEAEDAATYYCQQRSTYPYTFGGGTKLEIKRTVAAPSVFIFPPQIVLTQSPALMSASPGEKVTMTCSASSSVNYMYWYQQKPRSSPKPWIYLTSNLASGVPARFSGSGSGTSYSLTISSMEAEDAATYYCQQWNSNPYTFGGGTKLEMKRTVAAPSVFIFPPSDEQLKSGTASVVCLLNNFYPREAKVQWKVDNALQSGNSQESVTEQDSKDSTYSLSSTLTLSKADYEKHKVYACEVTHQGLSSPVTKSFNRGEC
notes: 6B12.4F6 - long linker - 6H3.1A4.3E11 - C (b-a-C); also called hIL-1a/b DVD6b-Ig

Kd (human IL-12 [5]): 1.82 nM | Kd (human IL-18 [6]): 0.191 nM | Potency (IC50, M), IL-12-induced IFN-γ production by PHA blast cells (human IL-12 [7]): 3.66e-10 M | Potency (IC50, M), KG-1 bioassay (IFN-γ production) (human IL-18 [8]): 4e-11 M
B2: DVD1812SL (anti-IL12/IL18 DVD-Ig, 18-12-C, short linker) (bispecific antibody, human IgG1, kappa)
heavy: not shown
light: EIVMTQSPATLSVSPGERATLSCRASESISSNLAWYQQKPGQAPRLFIYTASTRATDIPARFSGSGSGTEFTLTISSLQSEDFAVYYCQQYNNWPSITFGQGTRLEIKRTVAAPQSVLTQPPSVSGAPGQRVTISCSGSRSNIGSNTVKWYQQLPGTAPKLLIYYNDQRPSGVPDRFSGSKSGTSASLAITGLQAEDEADYYCQSYDRYTHPALLFGTGTKVTVLGTVAAPSVFIFPPSDEQLKSGTASVVCLLNNFYPREAKVQWKVDNALQSGNSQESVTEQDSKDSTYSLSSTLTLSKADYEKHKVYACEVTHQGLSSPVTKSFNRGEC
notes: also called DVD1812HC-SL / DVD1812LC-SL

IC50 (M), MRC-5 bioassay (IL-8 production) (recombinant human IL-1α [9]): 2.4e-10 M
B3: murine monoclonal antibody 6H3.1A4.3E11 (anti-hIL-1α) (antibody, V domains shown)
VH: QVQLQQPGAELVRPGASVKLSCKASGYTFTTYWMNWVKQRPEQGLEWIGRIDPYDSETLYSQKFKDTAILTVDKSSSTAYMQLSSLTSEDSAVYYCARYGFDYWGQGTTLTVSS
VL: QIVLTQSPALMSASPGEKVTMTCSASSSVNYMYWYQQKPRSSPKPWIYLTSNLASGVPARFSGSGSGTSYSLTISSMEAEDAATYYCQQWNSNPYTFGGGTKLEMKR

IC50 (M), MRC-5 bioassay (IL-8 production) (recombinant human IL-1α [9]): 8.9e-11 M
B4: murine monoclonal antibody 18F4.2C8 (anti-hIL-1α) (antibody, V domains shown)
VH: EVQLQQSGAELVKPGASVKLSCTASGLNIKDTYMHWLKQRPEQGLEWIGRIDPANGNAKYDPRFLGKATITADTSSNTAYLQLSSLTSEDTAVYYCARGDGNFHFDYWGQGTTLTVSS
VL: DIVMTQSQRFMSTSVGDRVSVTCKASQNVGTNIAWYQQKPGQSPRALIYSASYRYSGVPDRFTGSGSGTDFTLTISNVQSVDLAEYFCQQYTRYPLTFGGGTKLEIKR

IC50 (M), MRC-5 bioassay (IL-8 production) (recombinant human IL-1β [10]): 5.3e-10 M
B5: murine monoclonal antibody 1B12.4H4 (anti-hIL-1β) (antibody, V domains shown)
VH: QVHLKESGPGLVAPSQSLSITCTVSGFSLTDYGVSWIRQPPGKGLEWLGLIWGGGDTYYNSPLKSRLSIRKDNSKSQVFLKMNSLQTDDTAVYYCAKQRTLWGYDLYGMDYWGQGTSVTVSS
VL: ETTVTQSPASLSMAIGEKVTIRCITSTDIDVDMNWYQQKPGEPPKLLISQGNTLRPGVPSRFSSSGSGTDFVFIIENMLSEDVADYYCLQSDNLPLTFGAGTKLELKR

Kd (recombinant human IL-1α [1]): 1.06 nM | Kd (recombinant human IL-1β [2]): 2.09 nM | Potency (IC50) M, MRC-5 bioassay (recombinant human IL-1α [3]): 2.3 nM | Potency (IC50) M, MRC-5 bioassay (recombinant human IL-1β [4]): 70 nM
B6: hIL-1α/bDVD6a-Ig (bispecific antibody, human IgG1, kappa)
heavy: not shown
light: QIVLTQSPALMSASPGEKVTMTCSASSSVNYMYWYQQKPRSSPKPWIYLTSNLASGVPARFSGSGSGTSYSLTISSMEAEDAATYYCQQWNSNPYTFGGGTKLEMKRTVAAPSVFIFPPQIVLTQSPAIMSASPGEKVTITCSASSSVSYMHWFQQKPGASPKLWIYSTSNLASGVPARFSGSGSGTSYSLTVSRMEAEDAATYYCQQRSTYPYTFGGGTKLEIKRTVAAPSVFIFPPSDEQLKSGTASVVCLLNNFYPREAKVQWKVDNALQSGNSQESVTEQDSKDSTYSLSSTLTLSKADYEKHKVYACEVTHQGLSSPVTKSFNRGEC
notes: 6H3.1A4.3E11 - long linker - 6B12.4F6 - C (a-b-C); also called hIL-1a/b DVD6a-Ig

IC50 (M), in vitro potency (assay not described) (mouse IL-1β): 3.7e-10 M
B7: mouse anti-mouse IL-1β mAb clone 10G11 (antibody, V domains shown)
VH: EVQLQQSGPELVKPGTSVKMSCKTSGYTFTSYVMHWVKQKPGQGLEWIGYIIPYNDNTKYNEKFKGKATLTSDKSSSTAYMELSSLTSEDSAVYYCARRNEYYGSSFFDYWGQGTTLTVSS
VL: DIQMTQSPASLSASVGETVTITCRGSGILHNYLVWYQQKQGKSPQLLVYSAKILADGVPSRFSGSGSGTQYSLKINSLQPEDFGSYYCQHFWSTPFTFGSGTKLEIKR

IC50 (M), MRC-5 bioassay (IL-8 production) (recombinant human IL-1β [10]): 6e-10 M
B8: murine monoclonal antibody 13F5.G5 (anti-hIL-1β) (antibody, V domains shown)
VH: QVQLQQSGAELVRPGSSVKISCKASGYAFSSYWMNWVKQRPGQGLEWIGQIYPGDGDTNYNGKFKGKATLTADKSSSTSYMQLSGLTSEDSAMYFCVRFPTGNDYYAMDYWGQGTSVTVSS
VL: NIVLTQSPASLAVSLGQRATISCRASESVDSYGNSYMHWYQQKPGQPPKLLIYLASNLESGVPARFSGSGSRTDFTLTIDPVEADDAATYYCQQNNEDPFTFGSGTKLEIKR

IC50 (M), MRC-5 bioassay (IL-8 production) (recombinant human IL-1β [10]): 3.2e-10 M
B9: murine monoclonal antibody 6B12.4F6 (anti-hIL-1β) (antibody, V domains shown)
VH: EVQLQQSGPELVKTGTSVKISCKASGYSFTGYYMHWVRQSHGKSLEWIGYISCYNGFTSYNPKFKGKATFTVDTSSSTAYIQFSRLTSEDSAVYYCARSDYYGTNDYWGQGTTLTVSS
VL: QIVLTQSPAIMSASPGEKVTITCSASSSVSYMHWFQQKPGASPKLWIYSTSNLASGVPARFSGSGSGTSYSLTVSRMEAEDAATYYCQQRSTYPYTFGGGTKLEIKR

Kd (human IL-12 [5]): 0.113 nM | Kd (human IL-18 [6]): 0.162 nM | Potency (IC50, M), IL-12-induced IFN-γ production by PHA blast cells (human IL-12 [7]): 1.18e-10 M | Potency (IC50, M), KG-1 bioassay (IFN-γ production) (human IL-18 [8]): 7.8e-11 M
B10: DVD1812LL (anti-IL12/IL18 DVD-Ig, 18-12-C, long linker) (bispecific antibody, human IgG1, kappa)
heavy: not shown
light: EIVMTQSPATLSVSPGERATLSCRASESISSNLAWYQQKPGQAPRLFIYTASTRATDIPARFSGSGSGTEFTLTISSLQSEDFAVYYCQQYNNWPSITFGQGTRLEIKRTVAAPSVFIFPPQSVLTQPPSVSGAPGQRVTISCSGSRSNIGSNTVKWYQQLPGTAPKLLIYYNDQRPSGVPDRFSGSKSGTSASLAITGLQAEDEADYYCQSYDRYTHPALLFGTGTKVTVLGTVAAPSVFIFPPSDEQLKSGTASVVCLLNNFYPREAKVQWKVDNALQSGNSQESVTEQDSKDSTYSLSSTLTLSKADYEKHKVYACEVTHQGLSSPVTKSFNRGEC
notes: also called DVD1812HC-LL / DVD1812LC-LL

IC50 (M), in vitro potency (assay not described) (mouse IL-1α): 2e-10 M
B11: mouse anti-mouse IL-1α mAb clone 9H10 (antibody, V domains shown)
VH: QVILKESGPGILQPSQTLSLTCSFSGFSLSTYGTAVNWIRQPSGKGLEWLAQIGSDDRKLYNPFLKSRITLSEDTSNSQVFLKITSVDTEDSATYYCANGVMEYWGLGTSVTVSS
VL: SIVMTQTPKFLLVSAGDRVTITCKASQSVNHDVAWYQQMPGQSPKLLIYFASNRYTGVPDRFTGSGYGTDFTFTISTVQAEDLAVYFCQQDYSSPYTFGGGTKLEIKR

IC50 (M), MRC-5 bioassay (IL-8 production) (recombinant human IL-1α [9]): 6.7e-10 M
B12: murine monoclonal antibody 3D12.E3 (anti-hIL-1α) (antibody, V domains shown)
VH: QIQLVQSGPELKKPGETVKISCKASGYTFRNYGMNWVKQAPGKDLKRMAWINTYTGESTYADDFKGRFAFSLETSASTAYLQINNLKNEDTATYFCARGIYYYGSSYAMDYWGQGTSVTVSS
VL: NIQMTQTTSSLSASLGDRVTISCRASQDISNCLNWYQQKPDGTVKLLIYYTSRLHSGVPSRFSGSGSGTDYSLTISNLEQEDIATYFCQQGKTLPYAFGGGTKLEINR

Kd (recombinant human IL-1α [1]): 0.837 nM | Kd (recombinant human IL-1β [2]): 63.7 nM | Potency (IC50) M, MRC-5 bioassay (recombinant human IL-1α [3]): 0.75 nM
B13: hIL-1α/bDVD3a-Ig (bispecific antibody, human IgG1, kappa)
heavy: not shown
light: DIVMTQSQRFMSTSVGDRVSVTCKASQNVGTNIAWYQQKPGQSPRALIYSASYRYSGVPDRFTGSGSGTDFTLTISNVQSVDLAEYFCQQYTRYPLTFGGGTKLEIKRTVAAPETTVTQSPASLSMAIGEKVTIRCITSTDIDVDMNWYQQKPGEPPKLLISQGNTLRPGVPSRFSSSGSGTDFVFIIENMLSEDVADYYCLQSDNLPLTFGAGTKLELKRTVAAPSVFIFPPSDEQLKSGTASVVCLLNNFYPREAKVQWKVDNALQSGNSQESVTEQDSKDSTYSLSSTLTLSKADYEKHKVYACEVTHQGLSSPVTKSFNRGEC
notes: 18F4.2C8 - short linker - 1B12.4H4 - C (a-b-C); also called hIL-1a/b DVD3a-Ig
